From the Immune Epitope Database (IEDB)

Legend:
[1] = biological target: HLA-A*02:01; experiment: IEDB peptide-MHC binding, cellular MHC/competitive/fluorescence; ≥ and ≤ were set here for values at or beyond the usual limits of such assays
[2] = biological target: HLA-A*02:02; experiment: as above
[3] = biological target: HLA-A*02:06; experiment: as above
[4] = biological target: HLA-A*68:02; experiment: as above
[5] = biological target: HLA-A*02:03; experiment: IEDB peptide-MHC binding, purified MHC/competitive/radioactivity; ≥ and ≤ were set here for values at or beyond the usual limits of such assays
[6] = biological target: HLA-A*68:02; experiment: as above
[7] = biological target: HLA-A*02:01; experiment: as above
[8] = biological target: HLA-A*02:06; experiment: as above; details: source organism: Vaccinia virus WR
[9] = source organism: Influenza A virus
[10] = source organism: Vaccinia virus WR

Row | Sequence | IC50 [1, 10] [µM] | IC50 [2, 10] [µM] | IC50 [3, 10] [µM] | IC50 [5, 10] [µM] | IC50 [6, 10] [µM] | further results
1 | LAKSVFNSL |  |  |  |  |  | IC50 [1, 9]: 30.9 µM; IC50 [2, 9]: 14 µM; IC50 [3, 9]: 17.1 µM; IC50 [4, 9]: ≥ 70 µM; IC50 [5, 9]: 3.1 µM
2 | PTSETMYLT | 34.9 | 10.4 | ≥ 70 | 3.64 | 4.04 | 
3 | ETMYLTMKA | 19.1 | 7.85 | 12.7 | 0.942 | 0.00064 | 
4 | SVNASKTINA | 19.3 | 17.3 | 28.7 | 0.731 | 0.629 | 
5 | SVDAMIHKT | 24.1 | 5.02 | 10.6 | 3.66 | 0.878 | 
6 | TAIRAGYSIV | 26.2 | 6.82 | 8.59 | 0.072 | 1.05 | 
7 | DITNILGGV | 11.4 | 9.88 | 7.43 | 1.64 | 0.012 | 
8 | DITNILGGVL | 16.2 | 12.3 | 19 | 3.68 | 0.515 | 
9 | TAGNKVDVDI | 40.2 | 11 | 38.1 | 3.5 |  | IC50 [4, 10]: 9.83 µM
10 | ELENKKVEYV | 35.5 | 21.4 | ≥ 70 | 3.65 |  | IC50 [4, 10]: ≥ 70 µM
11 | LANERYRSA | 49.1 | 31.3 | ≥ 70 | 0.554 |  | IC50 [4, 10]: ≥ 70 µM
12 | VIRNEVNDT | ≥ 70 | 19.9 | ≥ 70 | 0.82 |  | IC50 [4, 10]: 28.3 µM
13 | DAMIHKTYI | 8.17 | 5.42 | 9.56 | 1.52 | 0.087 | 
14 | VIRHVDGKI | 43.3 | 8.55 | 9.27 | 0.978 | 1.45 | 
15 | RASAGQISV |  |  |  |  |  | IC50 [1, 9]: 19.6 µM; IC50 [2, 9]: 38.8 µM; IC50 [3, 9]: 11.5 µM; IC50 [4, 9]: 8.55 µM; IC50 [5, 9]: 4.96 µM
16 | HQRRLVKLL | 26.6 | 15.9 | 21.3 | 1.68 |  | IC50 [4, 10]: ≥ 70 µM
17 | EIRGVLPEET | 30.5 | 9.6 | 20.1 | 4.87 | 4.54 | 

Row | Sequence | IC50 [1, 10] [µM] | IC50 [2, 10] [µM] | IC50 [3, 10] [µM] | IC50 [5, 10] [µM] | IC50 [6, 10] [µM] | further results
18 | GLIVILFIM |  | 13.4 | 5.29 | 1.39 | 1.38 | IC50 [7, 10]: 1.66 µM
19 | GADINLMPI |  |  |  |  |  | IC50 [1, 9]: 11.9 µM; IC50 [2, 9]: 7.41 µM; IC50 [3, 9]: 5.77 µM; IC50 [5, 9]: 3.3 µM; IC50 [6, 9]: 4.41 µM
20 | RVNHAKYMVT | 39 | 33.6 | 9.34 | 1.05 | 0.544 | 
21 | NTITTFIPI |  | 15.5 | 7.77 | 0.988 | 0.0012 | IC50 [7, 10]: 0.857 µM
22 | VNPTLLFLKV |  |  |  |  |  | IC50 [2, 9]: 6.37 µM; IC50 [3, 9]: 16.4 µM; IC50 [7, 9]: 3.73 µM; IC50 [5, 9]: 2.81 µM; IC50 [6, 9]: 0.024 µM
23 | NISFKSINKV | 14.5 | 20.3 | 11.7 | 1.53 | 2.03 | 
24 | STKADAVVA | 29.3 | 8.19 | 16.2 | 4.95 | 0.82 | 
25 | SIGFEARIV | 7.3 | 10.1 |  | 0.575 |  | IC50 [4, 10]: 19.2 µM; IC50 [8]: 1.31 µM
26 | RTEIIRMMESA |  |  |  |  |  | IC50 [1, 9]: ≥ 70 µM; IC50 [2, 9]: 8.29 µM; IC50 [3, 9]: ≥ 70 µM; IC50 [5, 9]: 4.47 µM; IC50 [6, 9]: 4.32 µM
27 | RTWKVLSIM |  | 19.1 | 33.9 | 2.63 | 4.13 | IC50 [7, 10]: 0.84 µM
28 | NMWREILSNT |  | 6.07 | 12 | 0.056 |  | IC50 [4, 10]: 63.2 µM; IC50 [7, 10]: 0.997 µM
29 | LVQYRILPM | 34.7 | 14.8 |  | 1.17 |  | IC50 [4, 10]: 59.6 µM; IC50 [8]: 4.67 µM
30 | FISYNRHNDT | 36.3 | 6.84 | 11.2 | 4.93 | 2.28 | 
31 | EAFETQSGAL | 14.2 | 8.56 | 15 | 0.995 | 0.068 | 
32 | NTLISSDGA |  | 7.41 | 49.3 | 3.57 |  | IC50 [4, 10]: 25.4 µM
33 | LVITYCLVT |  | 6.98 | 8.01 | 3.25 |  | IC50 [4, 10]: 5.75 µM; IC50 [7, 10]: 1.33 µM
34 | YVSSSYKDI | 31.2 | 5.04 | 16.6 | 1.2 | 2.63 | 
